The target of one data set is T1, PpEst (Ectopseudomonas oleovorans, UniProt W6R2Y2).
T1 construct: gene tesA
In words: 4-NPB hydrolysis inhibition, […] nm. It counts as biochemical.

Substrate in the data set “purified protein”: CCCC(=O)Oc1ccc([N+](=O)[O-])cc1
Kind of data set: purified protein. In kind it is biochemical, Ectopseudomonas oleovorans. The note with it: 20 mM Tris-HCl pH 8.0, 150 mM NaCl, 0.1% Triton X-100, 25 °C, 'Exponential Rise to maximum' fit.

This passage reports Ki, Km and kcat results from publication PMC5320007, “PpEst is a novel PBAT degrading polyesterase identified by proteomic screening of Pseudomonas pseudoalcaligenes” (Applied Microbiology and Biotechnology, 2016).

As a reminder, the Ki is the dissociation constant of the complex between target and ligand, obtained from inhibition or displacement. A high value points to a looser hold on the target. On PpEst, `O=C(O)c1ccc(C(=O)OCCCCO)cc1` [BuTA, 4-(4-hydroxybutoxycarbonyl)benzoic acid] came in with a Ki of 670 µM.

B1: PpEst (Ectopseudomonas oleovorans CECT 5344) (protein)
chain: GTLLVVGDSISAAFGLDSRQGWVALLEKRLSEEGFEHSVVNASISGDTSAGGAARLSALLAEHKPELVIIELGGNDGLRGQPPAQLQQNLASMVEQSQQAGAKVLLLGMKLPPNYGVRYTTAFAQVFTDLAEQKQVSLVPFFLEGVGGVPGMMQADGIHPAEAAQEILLDNVWPTLKPML
By Km is commonly meant the substrate concentration at which the rate is half of its maximum. For orientation: kcat means the number of substrate molecules converted per active site and unit of time at saturation. For the molecule B1, in the data set “purified protein”, the Km was found to be 4.85 mM and the catalytic constant (kcat) was 1.98 s⁻¹.
